Source: PMC3333882 (Nucleic Acids Research, 2011)

Biological target: MEF2C-Flag (myocyte enhancer factor 2C with Flag tag) (UniProt Q8CFN5 1-474)
Experiment: co-IP

Chain of MEF2C-Flag (myocyte enhancer factor 2C with Flag tag) (Q8CFN5 whole entry): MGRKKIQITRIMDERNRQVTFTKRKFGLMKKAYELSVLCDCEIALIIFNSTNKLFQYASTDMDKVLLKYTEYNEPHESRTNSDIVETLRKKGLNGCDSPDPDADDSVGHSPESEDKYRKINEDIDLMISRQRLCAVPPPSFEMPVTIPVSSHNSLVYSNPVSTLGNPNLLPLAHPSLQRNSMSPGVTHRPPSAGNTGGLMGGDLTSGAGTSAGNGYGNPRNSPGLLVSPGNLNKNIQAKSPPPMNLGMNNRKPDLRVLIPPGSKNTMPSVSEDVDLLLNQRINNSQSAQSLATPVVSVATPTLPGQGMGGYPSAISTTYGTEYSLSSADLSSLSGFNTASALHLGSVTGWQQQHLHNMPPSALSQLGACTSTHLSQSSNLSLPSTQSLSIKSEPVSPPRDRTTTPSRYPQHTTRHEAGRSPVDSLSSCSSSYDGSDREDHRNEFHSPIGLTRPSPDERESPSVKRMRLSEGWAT

fold amount co-immunoprecipitated against the Flag-vector control: 4 fold
B1: Gli2 (glioma-associated factor 2) (natural protein, mouse, UniProt Q0VGV1 1-1540, looked up)
chain: METSAPAPALEKKEAKSGLLEDSSFPDPGKKACPLAVAAAVAAHGVPQQLLPAFHAPLPIDMRHQEGRYHYDPHSVHSVHGPPTLSGSPFISDISLIRLSPHPAGPGESPFSAHHPYVNPHMEHYLRSVHSSPTLSMISAARGLSPADVAHEHLKERGLFSLAAPGTNPSDYYHQMTLMASHPTPYGDLLMQSGGAASAPHLHDYLNPVDASRFSSPRVTPRLSRKRALSISPLSDASLDLQRMIRTSPNSLVAYINNSRSSSAASGSYGHLSAGALSPAFTFPHPINPVAYQQILSQQRGLGSAFGHTPPLIQPSPTFLAQQPMTLTSISTMPTQLSSSSSNCLNDANQNKQNSESAVSSTVNPITIHKRSKVKTEAEGLRPASPLGLTQEQLADLKEDLDRDDCKQEAEGVIYETNCHWADCTKEYDTQEQLVHHINNEHIHGEKKEFVCRWQACTREQKPFKAQYMLVVHMRRHTGEKPHKCTFEGCSKAYSRLENLKTHLRSHTGEKPYVCEHEGCNKAFSNASDRAKHQNRTHSNEKPYICKIPGCTKRYTDPSSLRKHVKTVHGPDAHVTKKQRNDVHVRAPLLKENGDNEASAEPGGRGPEESVEASSTSHTVEDCLHIKAIKTESSGLCQSSPGAQSSCSSEPSPLGSAPNNDSGMEMPGTGPGSLGDLTALADTCPGADTSALAAPSTGGLQLRKHMSTVHRFEQLKREKLKSLKDSCSWAGPAPHTRNTKLPPLPVNGSVLENFNNTGGGGPAGLLPSQRLPELTEVTMLSQLQERRDSSTSTMSSAYTVSRRSSGISPYFSSRRSSEASPLGGLRPHNASSADSYDPISTDASRRSSEASQCSGGGPGLLNLTPAQQYNLRAKYAAATGGPPPTPLPGLDRVSLRTRLALLDAPERALPGACPHPLGPRRGSDGPTYSHGHGHGYAGAAPAFPHEGPNSSTRRASDPVRRPDPLILPRVQRFHSTHNMNPGSLPPCADRRGLHVQSHPSVDSNLTRNAYSPRPPSINENVVMEAVAAGVDGPGLECDLGLVEDELVLPDDVVQYIKAHTGGTLDDGIRQGYPTEGTGFPENSKLPSPGLQGHRRLAAADSNMGPSAPGLGGCQLSYSPSSNLNKSNMPVQWNEVSSGTVDALPTQVKPPPFPHSNLAVVQQKPAFGQYPGYNPQSVQSSSGGLDSTQPHLQLRGAPSASRGSYTQQPRQPAAGSQCLGMSAAMSPQASYSQAHPQLSPNIVSGSLNQFSPSCSNMAAKPSHLGLPQQMEVVPNATIMNGHQREHGVPNSSLAAVSQPHPVLSYPQQDSYQQGSNLLSSHQPGFMESQQNAGFGLMQPRPPLEPNTASRHRGVRSGQQQLYARTTGQAMVTSANQETAEAMPKGPAGTMVSLAPQPSQDTGRAQDQNTLYYYGQIHMYEQNGGCPAVQPQPPQPQACSDSIQPEPLPSPGVNQVSSTVDSQLLEPPQIDFDAIMDDGDHSSLFSGALSPTLLHNLSQNSSRLTTPRNSLTLPSIPAGISNMAVGDMSSMLTSLAEESKFF
